Results: publication PMC4833381

How the values were obtained:
[1] = target: HCMV gB of HCMV BADrUL131 (infected cells and extracellular virions) (human cytomegalovirus, BADrUL131) (UniProt P06473); experiment: co-IP
[2] = target: HCMV UL130 of HCMV BADrUL131 (extracellular virions) (human cytomegalovirus, BADrUL131) (UniProt P16772); experiment: co-IP
[3] = target: HCMV gL of HCMV BADrUL131 (extracellular virions) (human cytomegalovirus, BADrUL131) (UniProt P16832); experiment: co-IP
[4] = target: HCMV gB of HCMV BADrUL131 (infected cells and extracellular virions) (human cytomegalovirus, BADrUL131) (UniProt P06473); experiment: co-IP; IP-western, repeat with an additional BADrUL131 virion preparation solubilized in 1% NP-40; IP with anti-gB MAb 15H7; gH signal read beside a linear range of gH/gL lysate (Image Studio, Licor)
[5] = target: HCMV gB of clinical strain TR (extracellular virions) (human cytomegalovirus, strain TR); experiment: co-IP; IP-western: extracellular virions of HCMV clinical strain TR solubilized in 1% NP-40; IP with anti-gB MAb 15H7; gH signal read beside a linear range of gH/gL lysate (Image Studio, Licor)
[6] = target: HCMV glycoprotein gH, strain TR (Ad vector) (human cytomegalovirus, strain TR); experiment: co-IP; IP-western: MRC-5 fibroblasts transduced with Ad vectors, 1% NP-40 lysates; IP with anti-gH MAb 14-4b; blot with anti-gB rabbit serum; percent against 5% input
[7] = target: HCMV glycoprotein gH, strain TR (Ad vector) (human cytomegalovirus, strain TR); experiment: co-IP; pulse-chase: Ad-transduced ARPE-19 cells labeled 15 min with 35S-methionine/cysteine, chased 60, 120 or 240 min; 1% NP-40 extracts; IP with anti-gH MAb 14-4b; SDS-PAGE under reducing conditions
[8] = target: HCMV glycoprotein gH, strain TR (Ad vector) (human cytomegalovirus, strain TR); experiment: co-IP; IP-western: ARPE-19 cells transduced with Ad vectors, 1% NP-40 lysates; IP with anti-gH MAb 14-4b, anti-gB MAbs 9C1, 13H10, 15H7 or anti-FLAG MAb; protein-A agarose; blots for gB, gH, HSV-1 gH or HSV-1 gD; percent against 5% input (ImageJ)
[9] = target: HCMV gB with a C-terminal FLAG epitope tag (Ad vector) (human cytomegalovirus) (UniProt P06473); experiment: as above
[10] = target: HCMV glycoprotein gB, lab strain AD169 (Ad vector) (human cytomegalovirus, strain AD169) (UniProt P06473); experiment: as above

Sequence of UniProt P16832 (P16832 31-278): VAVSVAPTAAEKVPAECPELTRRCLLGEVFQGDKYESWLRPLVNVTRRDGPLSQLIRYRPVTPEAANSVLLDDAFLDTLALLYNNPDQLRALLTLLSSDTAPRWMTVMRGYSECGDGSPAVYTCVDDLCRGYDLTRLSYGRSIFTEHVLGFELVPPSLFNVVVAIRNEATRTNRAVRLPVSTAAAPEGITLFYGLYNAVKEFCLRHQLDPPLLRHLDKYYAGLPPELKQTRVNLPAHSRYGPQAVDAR

With “HCMV UL130 of HCMV BADrUL131 (extracellular virions) (from UniProt P16772) (natural protein)” the percent of the total co-IP'd with gB [1] was 2.5%.

For “HCMV gB of HCMV BADrUL131 (infected cells and extracellular virions) (from UniProt P06473 32-906) (natural protein)”, the percent of the total gB precipitated with anti-UL130 serum [2] was 1%.

“HCMV gH of HCMV BADrUL131 (infected cells and extracellular virions) (from UniProt P12824 24-743) (natural protein)” gave a percent of the total gH/gL precipitated with anti-UL130 serum [2] of 24%, a percent of the total gH/gL co-IP'd with gB [1] of 50% and a percent of the total gH IP'd with gL antibodies [3] of 8%. The percent of the total gH co-IP'd with gB [4] was 21%.

In the case of “HCMV gH of clinical strain TR (extracellular virions) (natural protein)”, the percent of the total gH co-IP'd with gB [5] is reported as 16%.

“HCMV gO of HCMV BADrUL131 (extracellular virions) (from UniProt P16750 31-466) (natural protein)” gave a percent of the total co-IP'd with gB [1] of 1%.

With “HCMV glycoprotein gB, lab strain AD169 (Ad vector) (from UniProt P06473 32-906) (natural protein)” the percent of the total gB co-IP'd with gH/gL [6] was 13%, the gB complexed with gH/gL, percent of the gH/gL precipitated (pulse sample) [7] was 38% and the percent of the total gB co-IP'd with gH/gL [8] was 16.5%.

With “HCMV glycoprotein gH, strain TR (Ad vector) (natural protein)” the percent of gH/gL co-IP'd with gB MAbs or anti-FLAG MAbs [9] was 1 to 6% and the percent of gH/gL co-IP'd with gB MAbs or anti-FLAG MAbs [10] was 1 to 6%.
